The series is described as follows: yeast display, Sf9 membrane polyspecificity reagent, FACS + sequencing; frameworks hold sequencing errors. The procedure, abridged:
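In a synthetic yeast display library (Saccharomyces cerevisiae BJ5465), nanobody expression was induced with galactose for 36–48 hours. FACS gates were set low and high (top ~1%) using anti-HA fluorescence for expression and streptavidin fluorescence for binding of the Sf9 membrane reagent. Each polyreactivity label is drawn from the gate of origin.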
As to “QVLLVESGGGLVQAGGSLRLSCASSGRILGYYAKGWYRQAPGKERELVAGITYSAGRTYYADSVKGRFTISRDNSKNTVYLQINRQTPEDTAVYYCAKALVRSGSTRGTPGYSYWGQGTQVTVSS”, the “polyreactivity (PSR sort gate)” value is “high polyreactivity”.

With “QVQLVESGGGLVQAGGSLRLSCAASGRTFKHYAMGWYRQAPGKERELVAAITSGGSTYYADSVKGRFTISRDNAKNTVYLQMNSLKPEDTAVYYCNKESYFDTYRRYDSWGQGTQVTVSS”, the “polyreactivity (PSR sort gate)” value was “low polyreactivity”.

Regarding “QVQLVESGGGLVQAGGSLRLSCAASGLNFRRNAMRWYRQAPGKERELVAVIDRGGRTNYADSVKGRFTISRDNAKTTVYLQMNSLKPEDTAVYYCAKRYASTSGYWGQGTQVTVSS”, the “polyreactivity (PSR sort gate)” value is given as “high polyreactivity”.

Turning to “QVPLVESGGGLVQAGGSLRLSCAASGLTFDIYTMGWYRQAPGKERELVARISTSGSRTYYADSVKGRFTISRDYAKNTVYLQMNSLIPEDTAVYYCNKDGWIRRRRGSDYWGQGTQVTVSS”, the “polyreactivity (PSR sort gate)” value was “high polyreactivity”.

Turning to “QVQLVESGGGLVQAGGSLRLSCAASGFTFIPYAMGWYRQAPGKERELVAAISRKGGRTYYADSVKGRFTISRDNAKNTVYLQMNSLKPEDTAVYYCAVSQYRGIYRKYDYWGQGTQVTVSS”, the “polyreactivity (PSR sort gate)” value is “high polyreactivity”.

As to “QVQLVESGGGLVQAGGSLRLSCAASGSTFKYYTMGWYRQAPGKERELVAAISYSGGSTYYADSVKGRFTISRDNAKNTVYLQMNSLKPEDTAVYYCAALRYADYDYWGQGTQVTVSS”, the “polyreactivity (PSR sort gate)” value is reported as “high polyreactivity”.

On to “QVQLGESGGGLVQAGGSLRLSCAASGRTLSYYARGWYRHAPGKEREFVAAITGSGGSTYYADSVKGRFTISRDNAKNTVYLQMHSLQPADTAVYYCNAKGLGVFTVEYYYWGQGTQVTVSS”, for which the “polyreactivity (PSR sort gate)” value is “low polyreactivity”.

For “QVQLVESGGGLVQAGGSLRLSCAASGRTSGAYAMGWYRQAPGKERELVAAISIAGITYADSVKGRFTISRDNAKNTVYLQMNSLKPEDTAVYYCAAYYLFRPYAQYDYWGQGTQVTVSS”, the “polyreactivity (PSR sort gate)” value is on record as “low polyreactivity”.

With “QVQLVESGGGLVQAGGRLRLTCAASGSTFGDYAMGWYRQAPGKERELVAAITYSGGRTYYADSVKGRFTISRDNAKNTGDLQMNRLKPEDTAVYYCAARVRYPSRRGNYDYWGEGTQVTVSS”, the “polyreactivity (PSR sort gate)” value is listed as “high polyreactivity”.

As to “QVQLVESGGGLVQAGGSLRLSCAASGGTMLYYAMGWYRQAPRKEMELVAVITSSAGRTYYADSVKGRITISRDNAKITVYLLMNSLKPEDTAVSYCNATGYLVGSISIYDYWGQGTQVTVSS”, the “polyreactivity (PSR sort gate)” value is listed as “low polyreactivity”.

In the case of “QVQLVESGGGLDQARGSLRLSCAASGFTFKFYAMGWYRQSPGKEREFVAAISGSGDSTYADSVKGRFTISRDNAKNTVYLQMNSLKPEDTAVYYCNARYAGVPWWGYYSSEVNYWGQGTQVTVSS”, the “polyreactivity (PSR sort gate)” value is reported as “low polyreactivity”.

As for “QVQLVASGGGLVQEGGSLRLSCAASGSTFYVNAMGWYRPAAGKERELVAAISLSGGRTYYADSVKGRFTISRDNAKNPVYLQMNSLNQEDTAVYYCAARDSARYYWGQGTQVTVSS”, the “polyreactivity (PSR sort gate)” value is “high polyreactivity”.

Regarding “QVQLVESGGGLVQAGGSLRLSCAASGFIFAWNAMGWYRLAPGKERELVAAITSAGSTKYADSVKGRFTISRDNAKNTVYLQMNSLKPEDTAVYYCAAARFRIYCGQGTQVTVSS”, the “polyreactivity (PSR sort gate)” value is “high polyreactivity”.

With “QVQLVESGGGLVQAGGSLRLSCAASGSIFLWYTMGWYRQAPGKERELVAAISRTGGSTYYADSVKGRFTISRDNAKNTVYLQMNSLKPEETAVYYCAASFRPRSSRDYYYGYGYWGQGTQVTVSS”, the “polyreactivity (PSR sort gate)” value was “high polyreactivity”.

Take “QVQLVESGGGLVKAGGSLRLSCAASGFIFYIYAMGWYRQAPGKERELVAAITSGGSTYYADSVKGRFTISRDNAKNTVYLQMNSLKPEDTAVYYCAAESYYGYDYWGQGTQVTVSS”: the “polyreactivity (PSR sort gate)” value was “low polyreactivity”.

Consider “QVQLVESGGGLVQAGGSLRLSCAASGFIFTPYTKGWYRQATGKERELVAAITDGSSTYYADSVKGRFTISRDNAKNTVYLQMNSLKPEDTAVYYCNADTLTTTRRFNPYDYWGQGTQVTVSS”, for which the “polyreactivity (PSR sort gate)” value is on record as “low polyreactivity”.

For “QVQLVESGGGLVQAGGSLRLSCAASGFIFPSNAMGRYRQAPGKERELVAAISSRGTRTYYADSVKGRFTISRDNAKNTVYLQMNCLKPEDTAVYYCAKYGYWGQGTQVTVSS”, the “polyreactivity (PSR sort gate)” value is “high polyreactivity”.

Turning to “QVQLVESGGGLVQAGGSLRLTCAASGRTFYVNAMGWYRQAHGKERELVATISRGGSTHYADSVKGRFTISRDNAKYTVYLQLNSLKPEDTAVYYCAAPGRTSVYRYYYWGQGTQVTVSS”, the “polyreactivity (PSR sort gate)” value is “high polyreactivity”.

Regarding “QVQLVESGGGLVQAGGSLRLSCAASGSTFYIYAMGWYRQAPGKERELVAAISWRGGRTYYADSVKGRFTISRDNAKNTVYLQMNSLKPEDTAVYYCAAAYLRWSGTYYYVDGYDYWGQGTQVTVSS”, the “polyreactivity (PSR sort gate)” value was “high polyreactivity”.

For the sequence “QVQLVESGGGLVQAGGSLRLSCAASGRIFRKYTMGWYRQAPGKERELVAAISRNGGDTYYADSVKGRFTISRDNAKNTVYLQMNSLKPEDTAVYYCNARTPTDSTHFDYWGQGTQVTVSS”, the “polyreactivity (PSR sort gate)” value is “low polyreactivity”.

In the case of “QVQLVESGGGLVQAGGSLRLSCAASGSTYRWYAMGWYRQAPGKEREFVAAITWSGGRTYYADSVKGRFTISRDNAKNTVYLQMNSLKTEDTAVYYCNADDYGYSFNYWGQGTQVTVSS”, the “polyreactivity (PSR sort gate)” value is given as “high polyreactivity”.

Turning to “QVQLVESGGGLVQAGGSLRLSCAASGSIFYQYAMGWYRQAPGKERELVARIRGSTGTTYYADSVKGRFTISRDNAKNTVYLQMNSLKPEDTAVYYCNAARYQGRSRFDYWGQGTQVTVSS”, the “polyreactivity (PSR sort gate)” value was “high polyreactivity”.

Consider “QVQLVESGGGLVQAGGSLRLSCAASGSNFQRYTMGWYSQAPGKERELVAAITSRSGRTYYADSVKGRFTISRDNAKNTVYLQMNSLKPEDTAVYYCATVPYDQTRGYKYDYWGQGTQVTVSS”, for which the “polyreactivity (PSR sort gate)” value was “high polyreactivity”.

As for “EDQLGESGGGLVQAGGSLRLSCAASGRTFYSYARGWSRQAPVKERELVAGINGGGSTYYADSVKGRFTISRDNAKNTVYLQMNSLKPEDSPVYYCAARRYDIRYYYVTYRPPKMYYWGQGTQVTVSS”, the “polyreactivity (PSR sort gate)” value is listed as “high polyreactivity”.

Consider “QVQLVESGGGLVQAGGSLRLSCAASGSIFFKYTMGWYRQAPGKEREFVAAISYSGGRTYYADSVKGRFTISRDNAKNTVYLQMNSLKPEDTSVYYCATRDEITHGDRMDYWGQGTQVTVSS”, for which the “polyreactivity (PSR sort gate)” value is given as “low polyreactivity”.

As to “QVQLVESGGGLVQAGGSLRLSCAASGCTFGTYAMGWYRQAPGKERELVAAITDSTGNTYYADSVKGRFTISRDNAKNTVYLQMNSLKPEDTAVYYCALEYVYDYFWMDYWGQATQVTVSS”, the “polyreactivity (PSR sort gate)” value is recorded as “high polyreactivity”.

For the sequence “QVQLVESGGGLVQAGGSLRLSCAASGFTFSLYAMGWYRQAPGKERELVAAISRSGGSTYYADSVKGRFTISRDNAKNTVYLQMNSLNPEDTAVYYCAAREQTYTQRGKKLYYYWGQGTQVTVSS”, the “polyreactivity (PSR sort gate)” value is on record as “high polyreactivity”.

As for “QVQVVESGGGLVQAGGSLRLSCAASGSTFQYYAMGWYRQAPGKEREFFAAITWSGGRTYYADSVKGRFTISRDNAKNTVYLQMKSLKPEDTAVYYCAADIDGVWIPYEYDYWGQGTQGTVSS”, the “polyreactivity (PSR sort gate)” value is “low polyreactivity”.

On to “QVQLVESGGRLVQAGGSLRLSCAASGLIYSRYAMGGYRQAPGKEREFVATISWSGGSRYYADSVKGRFTISRDNAKNTVYLQMNSLKPEDTAVYYCATKKWYYPGDSKYYYWGQGTQVTVSS”, for which the “polyreactivity (PSR sort gate)” value is on record as “high polyreactivity”.

On to “QVQLVESGGGLVQAGGSLRLSCAASGNIIVENAMGWYRQAPAKERELVAVSTSGTSTYADSVKGRFTISRDNAKITVYLQMNSLKPEDTAVYYCNARRINTLYDYWGQGTQVTVSS”, for which the “polyreactivity (PSR sort gate)” value is “low polyreactivity”.

Take “QVQLVESGGGLVQVGGSLRLSCAASGFTFYDYAMGWYRQAPGKERELVAAISRGGSTYYADSVKGRFTISRDNAKNTVYLQINSLIPEDTAVYYCNARPTRIYHGMGYWGQGTQVTVSS”: the “polyreactivity (PSR sort gate)” value is on record as “low polyreactivity”.

On to “QVQLVESGGGLVQAGGSLRLSCAASGITFVLNVMGWNRQAPGKERELVAAISASGGRTYYADSVKGRFTISRDNAKHTVYLQMNSLKPEDTAVYYCNAVLPRYTFRSGVFEYDWGQGTQVTVSS”, for which the “polyreactivity (PSR sort gate)” value was “high polyreactivity”.

With “QVQLVESGGGLVQAGGSLRLSCAASGSIFQYYVMGWYRQAPGKERELVAAIRRSGTTYYADSVKGRFTISRDNAKNTVYLQMNSLNPEDTAVYYCNKVRGQEPSNYDYWGQGTQVTVSS”, the “polyreactivity (PSR sort gate)” value was “low polyreactivity”.

Consider “QVQLVESGGGLVQAGGSLRLSCAASGFTIFSYAMGWYRQAPGKERELVAAISRRGGSTYYADSVKGRFTISRDNAKNTVYLQMNSLKPEDTAVYYCAAGPRWHTNGWAYDYWGQGTQVTVSS”, for which the “polyreactivity (PSR sort gate)” value was “high polyreactivity”.

Consider “QVQLEESGGGLVQAGGSLSLSCAASGSILIYNAMGWYRQAPGKERELVAGISRRGASTYYADSVKGRFTISRDNEKKTVYLQMNRLKPEDTAVYYCAALGKYIVAWSGDYWGQGTQVTVSS”, for which the “polyreactivity (PSR sort gate)” value was “low polyreactivity”.

As to “QVQLVESGGGLVQAGGSLRLSCAASGIIFYSNTMGWYRQAPGKERELVAGISRSGSSTYYADSVKGRFTISRDNAKNTVYLQMNSLKPEDTAVYYCAAYRYGVTNAYGYWGQGTQVTVSS”, the “polyreactivity (PSR sort gate)” value is “high polyreactivity”.

On to “QVQLVESGGGLVQAGGSLRLSCAASGSILVQNAMGWYRQAPGKERELVAVINSGDSTNYADSVKGRFTISRDNAKNTVFLQMNSLKPEDTAVYYCAVDDVSYYYLRAYNYELSWYGSGLDYWGQGTQVTVSS”, for which the “polyreactivity (PSR sort gate)” value is “low polyreactivity”.

Consider “QVQLVESGGGLVQAGGSLRLSCAASGITFEVYAMAWYRQAPATERELVAVITSVGSTNYADSVKGRFTISRDNAKNTVYLQMNSLKTEDNAVYYCAGEKWTVRRFNPYTYYRYDYWGQGTQVTVSS”, for which the “polyreactivity (PSR sort gate)” value was “low polyreactivity”.

As for “QVQLVESGGGLVQAGGSLRLSCAASGSTFKRYAMGWYRQAPGKERELVAAITNGDRTNYADSVKGRFTISRDNAKNTVYLHMNSLKPEDTALYYCAAAYSRYTSRFYYWGQGTQVTVSS”, the “polyreactivity (PSR sort gate)” value is “high polyreactivity”.

Turning to “QVQLVESGGGLVQAGGSLRLSCAASGRIFSYAMGWYRQAPGKERELVAGSTYYADSVKGRFTISRDNAKNTVYLQMNSLKPEDTAVYYCNVGGYGLRGDYWGQGTQVTVSS”, the “polyreactivity (PSR sort gate)” value is given as “low polyreactivity”.

As to “QVLLVESAAGLVQAGGSLRLSCAASGSTFQGNAMGGYRKAPGKERELVAAISRSGGSTYADSVKGRFTISRDNAKNTVYLQLNSLKPEDTAVYYCAAYSGVGYLWFDYWGQGTQVTVSS”, the “polyreactivity (PSR sort gate)” value is “low polyreactivity”.

Values taken from the nanobody polyreactivity screen of Harvey et al. (2022).
